In patent US20260070987A1 one finds Kd data, which are given here for 40 molecules.

The experiment has as its target equine FcRn (large alpha subunit p51) / equine beta-2-microglobulin complex, biotinylated (equine) (UniProt P30441). The experiment is described as follows: SPR (Biacore), pH 6. Background: Surface plasmon resonance follows binding to a sensor surface in real time, without labels.

Where a chain is given by its changes, count along the chain named. In names and notes the source's numbering stands.

UniProt P30441, sequence (P30441 21-118, one chain of several): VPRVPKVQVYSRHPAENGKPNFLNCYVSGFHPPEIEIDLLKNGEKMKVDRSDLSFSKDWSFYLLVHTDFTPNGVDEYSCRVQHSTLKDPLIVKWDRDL

B1: equine IgG1 Q311C (antibody, part only; not given: variable domains, not shown: another chain or arm of the molecule)
constant: ASTTAPKVFALAPGCGTTSDSTVALGCLVSGYFPEPVKVSWNSGSLTSGVHTFPSVLQSSGFYSLSSMVTVPASTWTSETYICNVVHAASNFKVDKRIEPIPDNHQKVCDMSKCPKCPAPELLGGPSVFIFPPNPKDTLMITRTPEVTCVVVDVSQENPDVKFNWYMDGVEVRTATTRPKEEQFNSTYRVVSVLRIQHCDWLSGKEFKCKVNNQALPQPIERTITKTKGRSQEPQVYVLAPHPDELSKSKVSVTCLVKDFYPPEINIEWQSNGQPELETKYSTTQAQQDSDGSYFLYSKLSVDRNRWQQGTTFTCGVMHEALHNHYTQKNVSKNPGK
Regarding B1, the equilibrium dissociation constant (Kd) (usually the constant that tells how readily two partners part at equilibrium) was found to be 15.7 nM.

B2: equine IgG1 D312E (antibody, part only; not given: variable domains, not shown: another chain or arm of the molecule)
constant: B1 constant with C199Q, D200E
With B2, the Kd came to 25.2 nM.

B3: equine IgG1 D312H (antibody, part only; not given: variable domains, not shown: another chain or arm of the molecule)
constant: B1 constant with C199Q, D200H
B3 returned a Kd of 17.1 nM.

B4: equine IgG1 Q311D (antibody, part only; not given: variable domains, not shown: another chain or arm of the molecule)
constant: B1 constant with C199D
In the case of B4, the dissociation constant Kd stood at 54.6 nM.

B5: equine IgG1 D312N (antibody, part only; not given: variable domains, not shown: another chain or arm of the molecule)
constant: B1 constant with C199Q, D200N
The molecule B5 returned a Kd of 22.3 nM.

B6: equine IgG1 Q311G (antibody, part only; not given: variable domains, not shown: another chain or arm of the molecule)
constant: B1 constant with C199G
In turn, B6 returned a dissociation constant (Kd) of 20.1 nM.

B7: equine IgG1 M252L (antibody, part only; not given: variable domains, not shown: another chain or arm of the molecule)
constant: B1 constant with M140L, C199Q
The molecule B7 came in with a Kd of 101 nM.

B8: equine IgG1 Q311K (antibody, part only; not given: variable domains, not shown: another chain or arm of the molecule)
constant: B1 constant with C199K
Turning to B8, the Kd is 14.7 nM. This Kd lies about 6.9-fold lower than the previous one.

B9: equine IgG1 Q311T (antibody, part only; not given: variable domains, not shown: another chain or arm of the molecule)
constant: B1 constant with C199T
Consider B9, for which the Kd stood at 17.4 nM. The Kd values of the last two molecules are within 1.5-fold of each other.

B10: equine IgG1 Q311V (antibody, part only; not given: variable domains, not shown: another chain or arm of the molecule)
constant: B1 constant with C199V
For the molecule B10, the Kd was found to be 16.3 nM.

B11: equine IgG1 D312A (antibody, part only; not given: variable domains, not shown: another chain or arm of the molecule)
constant: B1 constant with C199Q, D200A
In turn, B11 returned an equilibrium dissociation constant (Kd) of 9.86 nM.

B12: equine IgG1 Q311W (antibody, part only; not given: variable domains, not shown: another chain or arm of the molecule)
constant: B1 constant with C199W
In the case of B12, the Kd is 21.2 nM. Compared with the last molecule, the Kd is about 2.2-fold higher.

B13: equine IgG1 D312L (antibody, part only; not given: variable domains, not shown: another chain or arm of the molecule)
constant: B1 constant with C199Q, D200L
As to B13, the Kd was 24.6 nM.

B14: equine IgG1 D312Q (antibody, part only; not given: variable domains, not shown: another chain or arm of the molecule)
constant: B1 constant with C199Q, D200Q
B14 had a dissociation constant Kd of 46 nM.

B15: equine IgG1 Q311S (antibody, part only; not given: variable domains, not shown: another chain or arm of the molecule)
constant: B1 constant with C199S
Consider B15, for which the Kd was found to be 24.4 nM.

B16: equine IgG1 D312F (antibody, part only; not given: Variable domains, not shown: another chain or arm of the molecule)
constant: B1 constant with C199Q, D200F
The molecule B16 had a Kd of 17.8 nM. The Kd values of the last two molecules are within 1.5-fold of each other.

B17: equine IgG1 M252W (antibody, part only; not given: variable domains, not shown: another chain or arm of the molecule)
constant: B1 constant with M140W, C199Q
As for B17, the Kd was found to be 26.6 nM.

B18: equine IgG1 Q311M (antibody, part only; not given: variable domains, not shown: another chain or arm of the molecule)
constant: B1 constant with C199M
Turning to B18, the equilibrium dissociation constant (Kd) is 12 nM.

B19: equine IgG1 Q311E (antibody, part only; not given: variable domains, not shown: another chain or arm of the molecule)
constant: B1 constant with C199E
In turn, B19 came in with an equilibrium dissociation constant (Kd) of 67.3 nM.

B20: equine IgG1 Q311N (antibody, part only; not given: Variable domains, not shown: another chain or arm of the molecule)
constant: B1 constant with C199N
In turn, B20 displayed a Kd of 24.3 nM.

B21: equine IgG1 G426C (antibody, part only; not given: variable domains, not shown: another chain or arm of the molecule)
constant: B1 constant with C199Q, G316C
Molecule B21 displayed a Kd of 20.4 nM.

B22: equine IgG1 M252K (antibody, part only; not given: variable domains, not shown: another chain or arm of the molecule)
constant: B1 constant with M140K, C199Q
B22 displayed a Kd of 36.7 nM.

B23: equine IgG1 D312M (antibody, part only; not given: Variable domains, not shown: another chain or arm of the molecule)
constant: B1 constant with C199Q, D200M
As for B23, the Kd is 23.4 nM.

B24: equine IgG1 Q311I (antibody, part only; not given: variable domains, not shown: another chain or arm of the molecule)
constant: B1 constant with C199I
B24 returned a Kd of 12.6 nM.

B25: equine IgG1 D312K (antibody, part only; not given: variable domains, not shown: another chain or arm of the molecule)
constant: B1 constant with C199Q, D200K
As for B25, the Kd is 15.8 nM.

B26: equine IgG1 Q311F (antibody, part only; not given: variable domains, not shown: another chain or arm of the molecule)
constant: B1 constant with C199F
The molecule B26 gave a Kd of 20.3 nM.

B27: equine IgG1 Q311R (antibody, part only; not given: variable domains, not shown: another chain or arm of the molecule)
constant: B1 constant with C199R
On to B27, for which the Kd came out at 10.1 nM.

B28: equine IgG1 D312C (antibody, part only; not given: variable domains, not shown: another chain or arm of the molecule)
constant: B1 constant with C199Q, D200C
Molecule B28 yielded a Kd of 21 nM.

B29: equine IgG1 Q311Y (antibody, part only; not given: Variable domains, not shown: another chain or arm of the molecule)
constant: B1 constant with C199Y
With B29, the Kd was 21.2 nM.

B30: equine IgG1 Q311L (antibody, part only; not given: Variable domains, not shown: another chain or arm of the molecule)
constant: B1 constant with C199L
For the molecule B30, the dissociation constant (Kd) was determined as 16.1 nM.

B31: equine IgG1 D312V (antibody, part only; not given: Variable domains, not shown: another chain or arm of the molecule)
constant: B1 constant with C199Q, D200V
With B31, the dissociation constant (Kd) stood at 8.32 nM. This Kd is about 1.9-fold lower than that of the molecule before.

B32: equine IgG1 D312G (antibody, part only; not given: variable domains, not shown: another chain or arm of the molecule)
constant: B1 constant with C199Q, D200G
In the case of B32, the dissociation constant (Kd) is 16.2 nM.

B33: equine IgG1 D312T (antibody, part only; not given: Variable domains, not shown: another chain or arm of the molecule)
constant: B1 constant with C199Q, D200T
Turning to B33, the Kd was found to be 20.3 nM.

B34: equine IgG1 D312W (antibody, part only; not given: variable domains, not shown: another chain or arm of the molecule)
constant: B1 constant with C199Q, D200W
Turning to B34, the dissociation constant (Kd) amounted to 21.6 nM.

B35: equine IgG1 G426A (antibody, part only; not given: variable domains, not shown: another chain or arm of the molecule)
constant: B1 constant with C199Q, G316A
B35: the Kd worked out at 17.6 nM.

B36: equine IgG1 M252F (antibody, part only; not given: variable domains, not shown: another chain or arm of the molecule)
constant: B1 constant with M140F, C199Q
B36 displayed a Kd of 47.5 nM.

B37: equine IgG1 Q311H (antibody, part only; not given: variable domains, not shown: another chain or arm of the molecule)
constant: B1 constant with C199H
The molecule B37 yielded a dissociation constant Kd of 24.3 nM. Against the preceding molecule, the Kd is about 2-fold lower.

B38: equine IgG1 D312Y (antibody, part only; not given: variable domains, not shown: another chain or arm of the molecule)
constant: B1 constant with C199Q, D200Y
B38 had a dissociation constant (Kd) of 17.1 nM.

B39: equine IgG1 D312P (antibody, part only; not given: variable domains, not shown: another chain or arm of the molecule)
constant: B1 constant with C199Q, D200P
In the case of B39, the Kd amounted to 8.88 nM.

B40: equine IgG1 D312S (antibody, part only; not given: variable domains, not shown: another chain or arm of the molecule)
constant: B1 constant with C199Q, D200S
In turn, B40 had a dissociation constant Kd of 16.7 nM.
